From the supplement of paper PMC7877785
± gives the uncertainty stated by the source.

Assay: self-splicing fitness, log relative to wild type (ln ratio); higher = more splicing; Tetrahymena group I intron in knt gene, E. coli kanamycin selection, DiMSum; sequences stand for … in CUCUCU…GGAGGGAAAAGUUAUCAGGCAUGCACCUGGUAGCUAGUCUUUAAACCAAUAGAUUGCAUCGGUUUAAAAGGCAAGACCGUCAAAUUGCGGGAAAGGGGUCAACAGCCGUUCAGUACCAAGUCUCAGGGGAAACUUUGAGAUGGCCUUGCAAAGGGUAUGGUAAUAAGCUGACGGACAUGGUCCUAACCACGCAGCCAAGUCCUAAGUCAACAGAUCUUCUGUUGAUAUGGAUGCAGUUCACAGACUAAAUGUCGGUCGGGGAAGAUGUAUUCUUCUCAUAAGAUAUAGUCGGACCUCUCCUUAAUGGGAGCUAGCGGAUGAAGUGAUGCAACACUGGAGCCGCUGGGAACUAAUUUGUAUGCGAAAGUAUAUUGAUUAGUUUUGGAGUACUCGUGGUCG
In short: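 Six replicate transformations of E. coli BL21(DE3) with a pET-22b(+) library were grown overnight at 37°C or 30°C. The library randomised all eight P1ex-region intron nucleotides, the intron lying in the knt kanamycin-resistance gene, and plates were LB agar with or without 25 μg/mL kanamycin plus 100 μg/mL carbenicillin, 50 μM IPTG and 0.2% rhamnose. Pooled colonies were amplicon-sequenced on an Illumina HiSeq 2500, and fitness is the DiMSum error-weighted combination of wild-type-normalised replicate fold changes, kanamycin versus none.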

| Sequence | self-splicing fitness (ln) (30 °C) | self-splicing fitness (ln) (37 °C) |
| --- | --- | --- |
| AGGCAGCAAUAUUACGCGCC | -2.4 ± 0.32 | -0.401 ± 0.29 |
| AGGCAGCAAUAUUACGGACA | -0.916 ± 0.12 | -0.346 ± 0.13 |
| AGGCAGCAAUAUUACGGCCU | -3.36 ± 0.18 | -2.37 ± 0.24 |
| AGGCAGCAAUAUUACGGGAC | -3.48 ± 0.23 | -1.94 ± 0.19 |
| AGGCAGCAAUAUUACGGUAU | -1.79 ± 0.093 | -0.467 ± 0.1 |
| AGGCAGCAAUAUUACGGUCA | -0.0713 ± 0.069 | -0.148 ± 0.079 |
| AGGCAGCAAUAUUACGUCAC | -1.74 ± 0.13 | -1.25 ± 0.28 |
| AGGCAGCAAUAUUACGUCUC | -4.52 ± 0.23 | -2.03 ± 0.14 |
| AGGCAGCAAUAUUACGUGGC | -2.88 ± 0.2 | -2.58 ± 0.22 |
| AGGCAGCAAUAUUACGUGUA | -2.19 ± 0.1 | -1.09 ± 0.11 |
| AGGCAGCAAUAUUACGUUCG | -0.642 ± 0.079 | -0.181 ± 0.11 |
| AGGGAGCAAUAUUACGAAGU | -2.4 ± 0.37 | -2.14 ± 0.32 |
| AGGGAGCAAUAUUACGACAC | – | -1.18 ± 0.29 |
| AGGGAGCAAUAUUACGACAG | -2.9 ± 0.13 | -2.62 ± 0.22 |
| AGGGAGCAAUAUUACGACCU | -4.11 ± 0.33 | -1.67 ± 0.25 |
| AGGGAGCAAUAUUACGAGAG | -3.23 ± 0.4 | -3.84 ± 0.46 |
| AGGGAGCAAUAUUACGAGUC | -2.9 ± 0.3 | – |
| AGGGAGCAAUAUUACGAUUU | -2.26 ± 0.18 | -1.92 ± 0.29 |
| AGGGAGCAAUAUUACGCAAG | – | -1.54 ± 0.3 |
| AGGGAGCAAUAUUACGCCAU | -3.13 ± 0.43 | – |
| AGGGAGCAAUAUUACGCCUA | -1.43 ± 0.26 | -1.68 ± 0.21 |
| AGGGAGCAAUAUUACGCGCU | -2.13 ± 0.23 | -0.719 ± 0.39 |
| AGGGAGCAAUAUUACGCGUU | – | -2.46 ± 0.44 |
| AGGGAGCAAUAUUACGGUAA | – | -2.46 ± 0.44 |
| AGGGAGCAAUAUUACGGUUA | -2.53 ± 0.17 | -2.98 ± 0.28 |

| Sequence | self-splicing fitness (ln) (30 °C) | self-splicing fitness (ln) (37 °C) |
| --- | --- | --- |
| AGGGAGCAAUAUUACGGUUC | – | -1.7 ± 0.42 |
| AGGGAGCAAUAUUACGUAAA | -3.55 ± 0.31 | -2.73 ± 0.44 |
| AGGUAGCAAUAUUACGAAUA | -2.28 ± 0.026 | -1.51 ± 0.037 |
| AGGUAGCAAUAUUACGACGU | 0.156 ± 0.014 | 0.233 ± 0.033 |
| AGGUAGCAAUAUUACGAGCU | -0.0909 ± 0.015 | -0.123 ± 0.034 |
| AGGUAGCAAUAUUACGAGUC | -3.864 ± 0.037 | -2.49 ± 0.043 |
| AGGUAGCAAUAUUACGAUGA | -0.948 ± 0.016 | -0.562 ± 0.034 |
| AGGUAGCAAUAUUACGCCCC | -1.92 ± 0.044 | -1.56 ± 0.063 |
| AGGUAGCAAUAUUACGCUCC | -3.31 ± 0.052 | -2.43 ± 0.064 |
| AGGUAGCAAUAUUACGCUGG | -3.816 ± 0.035 | -2.83 ± 0.046 |
| AGGUAGCAAUAUUACGGAGG | -4.103 ± 0.034 | -3.11 ± 0.043 |
| AGGUAGCAAUAUUACGGCCC | -2.77 ± 0.044 | -1.91 ± 0.058 |
| AGGUAGCAAUAUUACGGCGU | -0.0406 ± 0.013 | 0.231 ± 0.033 |
| AGGUAGCAAUAUUACGGGAG | -3.83 ± 0.03 | -2.39 ± 0.038 |
| AGGUAGCAAUAUUACGGUCG | -0.351 ± 0.014 | -0.0478 ± 0.034 |
| AGGUAGCAAUAUUACGGUGA | -1.732 ± 0.017 | -1.06 ± 0.033 |
| AGGUAGCAAUAUUACGUACU | -0.29 ± 0.014 | -0.101 ± 0.034 |
| AGGUAGCAAUAUUACGUCAU | -2.147 ± 0.016 | -1.03 ± 0.034 |
| AGGUAGCAAUAUUACGUCGG | -2.803 ± 0.022 | -1.63 ± 0.036 |
| AGGUAGCAAUAUUACGUGGC | -3.619 ± 0.028 | -2.74 ± 0.042 |
| AGUAAGCAAUAUUACGAAAG | -4.26 ± 0.37 | – |
| AGUAAGCAAUAUUACGAAGG | -3.7 ± 0.2 | -2.07 ± 0.26 |
| AGUAAGCAAUAUUACGACUG | -1.45 ± 0.12 | 0.23 ± 0.15 |
| AGUAAGCAAUAUUACGAGAG | -2.28 ± 0.24 | -2.49 ± 0.29 |
| AGUAAGCAAUAUUACGAGCC | -0.632 ± 0.16 | -0.472 ± 0.17 |

| Sequence | self-splicing fitness (ln) (30 °C) | self-splicing fitness (ln) (37 °C) |
| --- | --- | --- |
| AGUAAGCAAUAUUACGCACU | -3.07 ± 0.29 | -1.79 ± 0.29 |
| AGUAAGCAAUAUUACGCAGG | -3.42 ± 0.23 | -1.43 ± 0.2 |
| AGUAAGCAAUAUUACGCAUG | -3.12 ± 0.17 | -1.95 ± 0.23 |
| AGUAAGCAAUAUUACGCCGG | -2.45 ± 0.39 | -1.99 ± 0.34 |
| AGUAAGCAAUAUUACGCGAG | -3.33 ± 0.21 | -1.75 ± 0.15 |
| AGUAAGCAAUAUUACGGAAA | -3.26 ± 0.41 | -0.269 ± 0.23 |
| AGUAAGCAAUAUUACGGACG | -0.782 ± 0.093 | -0.415 ± 0.12 |
| AGUAAGCAAUAUUACGGAUC | -1.39 ± 0.12 | -1.31 ± 0.1 |
| AGUAAGCAAUAUUACGGCCU | 0.0223 ± 0.17 | -0.034 ± 0.26 |
| AGUAAGCAAUAUUACGGCGC | -1.02 ± 0.11 | -0.433 ± 0.13 |
| AGUAAGCAAUAUUACGGGCC | -1.48 ± 0.2 | -0.26 ± 0.15 |
| AGUAAGCAAUAUUACGGGGC | -3.29 ± 0.36 | -2.29 ± 0.34 |
| AGUAAGCAAUAUUACGGUAG | -3.89 ± 0.23 | -3.44 ± 0.29 |
| AGUAAGCAAUAUUACGGUUU | -1.45 ± 0.092 | -0.554 ± 0.11 |
| AGUAAGCAAUAUUACGUAUC | -3.99 ± 0.33 | -0.681 ± 0.23 |
| AGUAAGCAAUAUUACGUGCA | -1.36 ± 0.085 | -0.712 ± 0.092 |
| AGUAAGCAAUAUUACGUGGA | -3.8 ± 0.4 | -3.85 ± 0.39 |
| AGUAAGCAAUAUUACGUUAC | -3.26 ± 0.24 | -2.61 ± 0.27 |
| AGUCAGCAAUAUUACGAAAA | -1.63 ± 0.17 | -1.3 ± 0.2 |
| AGUCAGCAAUAUUACGAAGC | -3.56 ± 0.18 | -2.03 ± 0.17 |
| AGUCAGCAAUAUUACGACUU | -2.13 ± 0.11 | -1.96 ± 0.19 |
| AGUCAGCAAUAUUACGAGAU | -2.61 ± 0.11 | -1.76 ± 0.1 |
| AGUCAGCAAUAUUACGAGCA | -0.935 ± 0.12 | -0.0144 ± 0.14 |
| AGUCAGCAAUAUUACGAUCA | 0.171 ± 0.099 | 0.226 ± 0.11 |
| AGUCAGCAAUAUUACGAUUC | -3.27 ± 0.14 | -1.05 ± 0.1 |

| Sequence | self-splicing fitness (ln) (30 °C) | self-splicing fitness (ln) (37 °C) |
| --- | --- | --- |
| AGUCAGCAAUAUUACGCAUC | -1.32 ± 0.1 | -0.329 ± 0.12 |
| AGUCAGCAAUAUUACGCCCG | -0.925 ± 0.12 | -1.52 ± 0.17 |
| AGUCAGCAAUAUUACGCUCU | -1.01 ± 0.2 | -0.342 ± 0.21 |
| AGUCAGCAAUAUUACGGAAA | -2.78 ± 0.19 | -2 ± 0.15 |
| AGUCAGCAAUAUUACGGCCA | -0.485 ± 0.14 | -0.0722 ± 0.2 |
| AGUCAGCAAUAUUACGGGAG | -3.52 ± 0.15 | -1.41 ± 0.11 |
| AGUCAGCAAUAUUACGGGGG | -3.61 ± 0.21 | -2.6 ± 0.22 |
| AGUCAGCAAUAUUACGGUGG | -3.01 ± 0.26 | -1.79 ± 0.24 |
| AGUCAGCAAUAUUACGUACG | -0.473 ± 0.08 | -0.0481 ± 0.1 |
| AGUCAGCAAUAUUACGUCGA | -0.487 ± 0.1 | -0.568 ± 0.13 |
| AGUCAGCAAUAUUACGUUUG | -4.04 ± 0.21 | -2.53 ± 0.19 |
| AGUGAGCAAUAUUACGAACG | -0.686 ± 0.094 | -0.206 ± 0.15 |
| AGUGAGCAAUAUUACGACGU | -0.966 ± 0.059 | -0.385 ± 0.066 |
| AGUGAGCAAUAUUACGAGAA | -1.8 ± 0.48 | – |
| AGUGAGCAAUAUUACGCAAU | -2.23 ± 0.4 | -0.698 ± 0.43 |
| AGUGAGCAAUAUUACGCAGA | – | -1.35 ± 0.28 |
| AGUGAGCAAUAUUACGCCGA | -1.82 ± 0.31 | -2.36 ± 0.4 |
| AGUGAGCAAUAUUACGCGGC | -3.16 ± 0.44 | – |
| AGUGAGCAAUAUUACGGACG | -1.16 ± 0.15 | -1.45 ± 0.21 |
| AGUGAGCAAUAUUACGGCGU | -1.08 ± 0.071 | -0.465 ± 0.084 |
| AGUGAGCAAUAUUACGGGUA | -3.22 ± 0.23 | -1.61 ± 0.26 |
| AGUGAGCAAUAUUACGUAAU | -3.13 ± 0.15 | -1.7 ± 0.15 |
| AGUGAGCAAUAUUACGUAGC | -1.99 ± 0.14 | -3.39 ± 0.39 |
